What was measured:
[1] = molecular target: T1, P-glycoprotein (human), as expressed on NIH 3T3 MDR1 cells (human, UniProt P08183, N-glycans on ECL1); test: flow cytometry on cells; living NIH 3T3 MDR1 cells treated with 0, 50, 100 or 200 U/mL PNGase F; 10 µg/mL 15D3 or UIC2 for 30 min at 37 °C in glucose-PBS; Alexa-488 anti-mouse goat secondary antibody; settings: one partner purified
T1 construct: P-glycoprotein (MDR1, ABCB1), human; integral membrane protein on the cell surface; Cell line a gift from M. Gottesman; also called Pgp; multi-drug resistance protein 1; source: NIH 3T3 MDR1 mouse fibroblasts, human Mdr1 gene-transduced, stably expressing; on living cells and in membrane preparation (Mem-PER Plus kit)
T1 sequence (P08183 whole entry): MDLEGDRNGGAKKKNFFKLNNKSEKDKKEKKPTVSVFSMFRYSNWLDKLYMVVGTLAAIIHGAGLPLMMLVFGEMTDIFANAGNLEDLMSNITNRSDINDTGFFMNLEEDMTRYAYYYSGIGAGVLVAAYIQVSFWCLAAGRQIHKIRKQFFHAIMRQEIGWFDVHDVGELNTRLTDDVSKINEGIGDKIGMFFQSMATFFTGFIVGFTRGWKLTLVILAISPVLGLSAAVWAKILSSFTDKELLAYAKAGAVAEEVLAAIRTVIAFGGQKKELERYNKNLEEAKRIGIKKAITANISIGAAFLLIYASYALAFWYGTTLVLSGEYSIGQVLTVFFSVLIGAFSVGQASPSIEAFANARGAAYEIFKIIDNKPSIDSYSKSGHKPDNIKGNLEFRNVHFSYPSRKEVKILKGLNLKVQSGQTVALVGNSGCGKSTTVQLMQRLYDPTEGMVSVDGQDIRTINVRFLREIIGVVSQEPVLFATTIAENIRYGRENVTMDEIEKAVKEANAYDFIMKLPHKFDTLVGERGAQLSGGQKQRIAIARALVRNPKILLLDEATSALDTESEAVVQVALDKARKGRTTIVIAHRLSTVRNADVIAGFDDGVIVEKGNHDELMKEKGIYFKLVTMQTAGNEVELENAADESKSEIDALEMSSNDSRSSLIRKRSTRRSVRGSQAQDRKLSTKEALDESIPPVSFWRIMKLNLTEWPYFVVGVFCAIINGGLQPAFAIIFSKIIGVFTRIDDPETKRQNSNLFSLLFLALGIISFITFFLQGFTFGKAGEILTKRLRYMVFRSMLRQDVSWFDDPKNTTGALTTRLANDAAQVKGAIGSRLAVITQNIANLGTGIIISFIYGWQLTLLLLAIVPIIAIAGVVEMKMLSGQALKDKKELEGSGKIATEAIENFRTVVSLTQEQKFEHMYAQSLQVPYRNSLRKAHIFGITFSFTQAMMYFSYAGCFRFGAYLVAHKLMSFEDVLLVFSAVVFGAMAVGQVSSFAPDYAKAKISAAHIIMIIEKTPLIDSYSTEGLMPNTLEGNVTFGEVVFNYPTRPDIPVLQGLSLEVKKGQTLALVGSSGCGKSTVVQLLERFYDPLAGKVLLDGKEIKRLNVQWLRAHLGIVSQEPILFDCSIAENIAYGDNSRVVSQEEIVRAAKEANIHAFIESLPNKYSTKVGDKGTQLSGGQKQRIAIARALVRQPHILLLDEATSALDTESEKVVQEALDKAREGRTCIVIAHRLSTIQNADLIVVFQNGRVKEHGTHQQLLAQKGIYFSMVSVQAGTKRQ

[2] = molecular target: T2, P-glycoprotein (human) on NIH 3T3 MDR1 cells after PNGase F treatment (Homo sapiens, UniProt P08183, all N-linked oligosaccharides removed from ECL1 by PNGase F); test: as above; settings: one partner purified
T2 construct: P-glycoprotein (MDR1, ABCB1), human; N-glycans of ECL1 removed on living cells; also called Pgp; deglycosylated Pgp; source: NIH 3T3 MDR1 mouse fibroblasts, human Mdr1 gene-transduced; living cells treated with PNGase F (50, 100 or 200 U/mL)
T2 sequence (P08183 whole entry): as above

B1: 15D3 mouse monoclonal anti-Pgp antibody (antibody, V domains shown)
VH: EVKVVESGGVLVRPGGSLKLSCAASGFTFSRYTMSWVRQTPEKRLEWVATISSGGGNTYYPDSVKGRFTVSRDNAMSSLYLQMSSLRSEDTALYYCARYGAGDAWFAYWGQGTLVTVSA
VL: ELAMTQTPLSLPVSLGDQASISCRSSQSIVHSTGNTYLEWYLQKPGQSPKLLIYKVSNRFSGVPDRFSGSGSGTDFTLKISRLEAEDLGVYYCFQGSHFPRTFGGGTRLEIK
notes: mouse IgG1 constant part; IgG1; also called 15D3 mAb; source: hybridoma (ATCC HB-11342) supernatant or mouse ascites, purified (Protein G)
- binding result [1]: binds
- binding result [2]: binds

Source: article PMC10341432, “Cross-Linking Mass Spectrometry on P-Glycoprotein” (International Journal of Molecular Sciences, 2023)
